These results are taken from US20110237779A1 (Genentech, published 2011).

In assay [1] the target is T1, human tissue factor (human, UniProt P13726 33-251, limits assumed).
T1 construct: construct not described; also called TF
The assay is described as follows: phage ELISA, solution competition: Fab-phage incubated with serially diluted TF, unbound phage captured on TF-coated wells; IC50 used as affinity estimate.

For assay [2], the target named is T1, human tissue factor. The experiment in a line: phage ELISA, Fab on phage, competition with antigen in solution. For orientation: In an ELISA, binding on a coated surface is turned into a signal by an enzyme label.

B1: D3 direct hypervariable region graft on the acceptor human consensus framework (Fab displayed on phage) (Fab, V domains shown)
VH: EVQLVESGGGLVQPGGSLRLSCAASGFNIKDYYMHWVRQAPGKGLEWVGWIDPENGNTIYDPKFQDRFTISADTSKNTAYLQMNSLRAEDTAVYYCARDTAAYFDYWGQGTLVTVSS
VL: DIQMTQSPSSLSASVGDRVTITCKASRDIKSYLSWYQQKPGKAPKLLIYYATSLADGVPSRFSGSGSGTDFTLTISSLQPEDFATYYCLQHGESPFTFGQGTKVEIK
notes: Monovalent Fab-g3 phage display: light chain, and VH-CH1 followed by the minor phage coat protein P3; Kabat numbering; No framework changes; also called D3 grafted variant; D3 graft
B1: the IC50 (in general, the point on the concentration scale where inhibition reaches its midpoint) with human tissue factor [1] was 19 nM; in the assay with human tissue factor [2] it was 20 nM.

B2: D3 library clone, CDR-L3 LQDGESPFT, I58F, N82aI, D95N (Fab, V domains shown)
VH: EVQLVESGGGLVQPGGSLRLSCAASGFNIKDYYMHWVRQAPGKGLEWVGWIDPENGNTFYDPKFQDRFTISADTSKNTAYLQMISLRAEDTAVYYCARNTAAYFDYWGQGTLVTVSS
VL: DIQMTQSPSSLSASVGDRVTITCKASRDIKSYLSWYQQKPGKAPKLLIYYATSLADGVPSRFSGSGSGTDFTLTISSLQPEDFATYYCLQDGESPFTFGQGTKVEIK
notes: Changes against the D3 direct graft (Kabat): VL H91D; VH I58F, N82aI, D95N; copies: 1 + 1
B2: the IC50 with human tissue factor [1] is 8 nM.

B3: D3 library clone, CDR-L3 LSDGSSPFT (Fab, V domains shown)
VH: EVQLVESGGGLVQPGGSLRLSCAASGFNIKDYYMHWVRQAPGKGLEWVGWIDPENGNTIYDPKFQDRFTISADTSKNTAYLQMNSLRAEDTAVYYCARDTAAYFDYWGQGTLVTVSS
VL: DIQMTQSPSSLSASVGDRVTITCKASRDIKSYLSWYQQKPGKAPKLLIYYATSLADGVPSRFSGSGSGTDFTLTISSLQPEDFATYYCLSDGSSPFTFGQGTKVEIK
notes: Changes against the D3 direct graft (Kabat): VL Q90S, H91D, E93S; copies: 1 + 1
For B3, the IC50 with human tissue factor [1] is 15 nM.
